Data as given in US20260250737A1, “Engineered Luciferases and Luciferin Substrates” (Monod Bio, Inc., priority 2023, published 2026).
Changes are numbered by the printed parent chain.

B1: 5268 (protein)
chain: MTPEEIRENVRRFYAALASGDLEAAKSLFDPGVTITLWDGTTFTSVEEFRAWFEEQFQTSKDALREIVSLEVEGDVVRVLVRLTFVRDGEVQEVDLLQLFKFV
B2: 5275 (protein)
chain: B1 chain with R7K, R11L, R12N, S27A, E55K, Q58K, L70M, V86T, E90K, Q92E
B3: 5286 (protein)
chain: MTPEERIANVRAFYAALASGDLEAAKALFDPGVTITLWDGTTFTSVEEFRAWFEEQFKTSKDALREIESIEVDGDTVRVLVRLTFVRDGEEKVVDLLQLFKFV
B4: 5103 (protein)
chain: MTPEQRIANVRAFYAALASGDLEAAKALFDPGVTITLWDGTTFTSLEEFLAWFEKQFDASKDAKREIVDIEVEGDVVRVLVRLTYTKDGKEKVVDLLQLLKFV
B5: 5104 (protein)
chain: B4 chain with Q5E, R6I, I7R, E23A, V33T, D58K, D69S, I70L, V76T, K87V
B6: 5263 (protein)
chain: MTPEEIRANVLAFYAALASGDLAAAEALFDPGVTITLWDGTTFTSVAEFRAWFEAQFQTSKDALREIVDMRVEGDVVRVLVRLTFVRDGEEQVVDLLQLFKFV
B7: 5272 (protein)
chain: B6 chain with I6R, R7I, L11R, L22W, A55Q, V68L, M70I, R71E, E90K
B8: 5277 (protein)
chain: B6 chain with L11R, A23E, E26K, A47E, A51K, A55E, Q58K, D69E, V72I, E90K
B9: 5265 (protein)
chain: B6 chain with E5Q, L11R, L22W, A55E, Q58K, D69S, R71E, V76T, Q92K
B10: 5283 (protein)
chain: MTPEEIRANVERFYAALASGDLETAKALFDPGVTITLWDGTTFTSVEEFRKWFEEQFETSKDALREIVSMEVEGDTVRVLVRLTFVRNGEEKVVDLLQLFKFV
B11: 5264 (protein)
chain: MTPEEIRANVEAFYAALASGDWEAARALFDPGVTITLWDGTTFTSVEEFRAWFEEQFKTSKDALREIVDLEVEGDVVRVLVRLTFVRDGKEEVVDLLQLFKFV
B12: 5285 (protein)
chain: B11 chain with A12R, E23A, A24T, R26E, E47A, D69S, V72I, E73N, V86T
B13: 5270 (protein)
chain: B11 chain with E5A, R7I, E11K, E23A, E55A, K58E, D69S, L70M, V76T, D88N
B14: 5288 (protein)
chain: B3 chain with E5A, R6I, R11K, E23A, I70M, D73E, E90K, K92E
B15: 5269 (protein)
chain: B11 chain with A8E, E11R, W22L, E23A, R26K, E55K, D69S, V76T
B16: 5287 (protein)
chain: B11 chain with E5A, A8E, E11R, E23A, R26K, E55K, D69S, L70M, E92Q
B17: 5273 (protein)
chain: B11 chain with E5A, A8E, E11R, R26K, E55K, D69S
B18: 5281 (protein)
chain: B11 chain with W22L, R26K, A27S, A51K, D69S, L70M, V72I, V76T, E91V, V93E
B19: 5278 (protein)
chain: MTPEAIRENVEAFYAALASGDWEAAKALFDPGVTITLWDGTTFTSVEEFRAWFEEQFQTSKDALREIVSMRIEGDTVRVLVRLTFTRDGETQVVDLLQLFKFV
B20: 5261 (protein)
chain: MTPEEIRANVRAFYAALASGDLAAARALFDPGVTITLWDGTTFTSVEEFRAWFEEQFQTSKDALREIESIEVEGDTVRVLVRLTFTRDGVTQEVDLLQLFKFV
B21: 5280 (protein)
chain: B11 chain with E11R, E55K, K58Q, D69A, K90V, E92Q, V93E
B22: 5282 (protein)
chain: B3 chain with R6I, E55Q, K58Q, E68V, D73E, T76V, K92Q
B23: 5271 (protein)
chain: B19 chain with A5E, E11R, A12N, W22L, Q58K, R71E, E90V, T91E
B24: 5284 (protein)
chain: B20 chain with I6R, R7F, A15E, A23E, R26K, E68V, S69D, I70M, D88N, V90E
B25: 5267 (protein)
chain: B20 chain with R7L, R26K, Q58K, E68V, I70A, V90K, T91V, Q92E
B26: 5266 (protein)
chain: B20 chain with R26K, E68V, I70L, E71R, V90K, T91V
B27: 5274 (protein)
chain: B6 chain with L11R, L22W, D69S, M70L, R71E, E90R, E91T, Q92E, V93E
B28: 5262 (protein)
chain: B20 chain with I6R, R7I, A8E, L22W, E55K, Q58K, V90K, T91E, Q92E
B29: 5276 (protein)
chain: B3 chain with P3D, R6I, I7R, E55K, I70L, D73E, E90K, K92Q
B30: 5279 (protein)
chain: B19 chain with A5E, E11R, W22L, E23A, M70L, R71E, T76V, D88N

tested on: SmLux; experiment: Computationally generated LgLux variants expressed in E. coli, tested in lysates with SmLux and substrate 1c; assay type: biochemical; conditions: 20 uM SmLux, 50 uM substrate 1c
Procedure: LgLux sequences were designed computationally, and their activity measured as depicted schematically in FIG. 45.
A library of the computationally generated LgLux variants were expressed in E. coli and tested in lysates. 20 uM of SmLux and 50 uM of substrate 1c was used for the screening.
LgLux_4039 sequence is as set forth in SEQ ID NO:2773. MBIO-5103 through MBIO-5124, MBIO-5261 through MBIO-5295, MBIO-5101, and MBIO-5102 (SEQ ID NO:2815-SEQ ID NO:2873, respectively) are computationally generated LgLux. The sequences and activity of these LgLux are shown below in Table 21.
MBIO-5358 and MBIO-5360 through MBIO-5381 (SEQ ID NO:2774-SEQ ID NO:2796, respectively) are computationally generated LgLux.

Molecule	Fold change upon SmLux peptide addition
B1	1.05
B2	1.35
B3	33.33
B4	0.94
B5	0.97
B6	1.38
B7	11.86
B8	1.19
B9	2.8
B10	1.14
B11	1.26
B12	1.26
B13	1.25
B14	1.6
B15	1.1
B16	1.1
B17	1.01
B18	3.02
B19	1.61
B20	2.16
B21	1.07
B22	1.18
B23	10.11
B24	5.16
B25	1.42
B26	1.09
B27	1.07
B28	2.29
B29	6.45
B30	1.12

same assay, conditions: 50 uM substrate 1c, before SmLux peptide addition

Molecule	Baseline Signal (Normalized by expression)
B1	133
B2	122.8
B3	196
B4	193.2
B5	180.8
B6	137.4
B7	141.4
B8	120.6
B9	126.4
B10	141.4
B11	127.6
B12	188
B13	135.2
B14	170.8
B15	137.2
B16	174.8
B17	140.4
B18	125.6
B19	121.2
B20	176.8
B21	129.2
B22	131.8
B23	145
B24	186.8
B25	130.6
B26	129.8
B27	125.2
B28	139.6
B29	125.6
B30	111.8
